Measurements published in paper PMC11931385, “Structural and functional analysis of cancer-associated missense variants in the retinoblastoma protein pocket domain” (The Journal of Biological Chemistry, 2025).
Where a chain is given by its changes, count along the chain named. Numbers in names are those of the source. No end group written: not given here. TMR = tetramethyl rhodamine dye

T1: Rb^P S463L (human, UniProt P06400 380-788, S463L)
T1 construct: also called variant 10
T1 sequence (looked up): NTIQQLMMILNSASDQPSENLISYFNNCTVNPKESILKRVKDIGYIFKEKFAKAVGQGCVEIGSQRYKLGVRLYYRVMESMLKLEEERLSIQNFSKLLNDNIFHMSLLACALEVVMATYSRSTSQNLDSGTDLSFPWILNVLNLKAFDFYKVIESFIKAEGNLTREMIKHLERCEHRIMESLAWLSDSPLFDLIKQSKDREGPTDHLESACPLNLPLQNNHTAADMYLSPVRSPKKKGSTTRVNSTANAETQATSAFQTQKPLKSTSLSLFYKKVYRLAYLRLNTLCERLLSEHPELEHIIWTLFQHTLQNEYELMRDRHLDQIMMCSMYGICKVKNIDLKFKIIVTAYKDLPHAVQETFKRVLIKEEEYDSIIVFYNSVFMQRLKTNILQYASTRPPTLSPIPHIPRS

T2: Rb^P D604G (human, UniProt P06400 380-788, D604G)
T2 construct: also called variant 36
T2 sequence (looked up): T1 sequence (looked up) with L84S, D225G

T3: Rb^P R451C (human, UniProt P06400 380-788, R451C)
T3 construct: also called variant 5
T3 sequence (looked up): T1 sequence (looked up) with R72C, L84S

T4: Rb^P H555Y (human, UniProt P06400 380-788, H555Y)
T4 construct: also called variant 29
T4 sequence (looked up): T1 sequence (looked up) with L84S, H176Y

T5: Rb^P E539D (human, UniProt P06400 380-788, E539D)
T5 construct: also called variant 24
T5 sequence (looked up): T1 sequence (looked up) with L84S, E160D

B1: TMR-E2F1^TD, peptide of the E2F1 transactivation domain (peptide)
peptide: {TMR}-GEGIRDLFDCDFGDLTPLD
notes: also called E2F^TD; source: synthetic peptide, bought: GenScript
B2: TMR-E7^LxCxE, LxCxE peptide of the E7 oncoprotein from HPV (peptide)
peptide: DLYCYEQLN
modifications: also: TMR label, position not given here
notes: source: synthetic peptide, bought: GenScript

Assays:
Conditions in all cases: both partners purified
Rb^P S463L = target: T1, Rb^P S463L; assay: fluorescence polarisation; 25 °C; unlabeled Rb^P titrated against 1.5 nM TMR-E2F1^TD or 7.5 nM TMR-E7^LxCxE; 25 mM Tris pH 8.0, 200 mM NaCl, 1 mM DTT, 0.1% Tween-20; 2 min incubation; quadratic fit; apparent Kd for the variants, Kd for WT
Rb^P D604G = target: T2, Rb^P D604G; assay: as above
Rb^P R451C = target: T3, Rb^P R451C; assay: as above
Rb^P H555Y = target: T4, Rb^P H555Y; assay: as above
Rb^P E539D = target: T5, Rb^P E539D; assay: fluorescence polarisation; 37 °C, after the 25 °C reading ramped over 7 min to 37 °C and 2 min incubation; unlabeled Rb^P against 1.5 nM TMR-E2F1^TD or 7.5 nM TMR-E7^LxCxE; 25 mM Tris pH 8.0, 200 mM NaCl, 1 mM DTT, 0.1% Tween-20; apparent Kd

Binder | Kd (Rb^P S463L) [nM] | Kd (Rb^P D604G) [nM] | Kd (Rb^P R451C) [nM] | Kd (Rb^P H555Y) [nM] | Kd (Rb^P E539D) [nM]
B1 | 26 | 27 | 33 | 158 | 104
B2 | 10 | 13 | 7 | 8 | 19
